Targets include HLA-A*03:01; HLA-A*11:01; HLA-A*31:01; HLA-A*33:01; HLA-A*68:01.
What all share (test): IEDB peptide-MHC binding, purified MHC/competitive/radioactivity; filed as Kd, often an IC50 or EC50 that approximates it; ≥ and ≤ were set here for values at or beyond the usual limits of such assays
Setting [1] is: source organism: Vaccinia virus WR.
[2] abbreviates: source organism: SARS coronavirus Tor2.
Setting [3] is: source organism: Mammarenavirus lassaense.

Where only a bound is given, the exact number is not on record here.

As for IAEFVKENER, the Kd with HLA-A*03:01 (setting [1]) is no less than 70100 nM; with HLA-A*11:01 (setting [1]), no less than 30700 nM; with HLA-A*31:01 (setting [1]), 1690 nM; in the test with HLA-A*33:01 (setting [1]), 5580 nM; with HLA-A*68:01 (setting [1]), 169 nM.
Taken in the same sequence, the figures for ILGGVLHTK were 1.92 nM, 19.3 nM, 1380 nM, 6160 nM and 558 nM.
Taken in the same sequence, the figures for ILMKTANNY were 325 nM, 287 nM, no less than 77900 nM, no less than 77700 nM and no less than 20900 nM.
On to ILSDIISAEK, for which the Kd was 0.501 nM in the test with HLA-A*03:01 (setting [1]); 0.829 nM with HLA-A*11:01 (setting [1]); 14.5 nM in the test with HLA-A*31:01 (setting [1]); 1380 nM with HLA-A*33:01 (setting [1]); 4.29 nM with HLA-A*68:01 (setting [1]).
Taken in the same sequence, the figures for IMLEGETKLY were 1610 nM, 5110 nM, no less than 55800 nM, no less than 41100 nM and 1010 nM.
Taken in the same sequence, the figures for ISRTRLYDY were 176 nM, 1410 nM, 1240 nM, 2190 nM and no less than 42900 nM.
Taken in the same sequence, the figures for ISSKQYPAGR were 1020 nM, 128 nM, 5.62 nM, 317 nM and 8.59 nM.
Regarding IVHSYLKNY, the Kd with HLA-A*03:01 (setting [1]) was no less than 21600 nM; with HLA-A*11:01 (setting [1]) it was 1230 nM; with HLA-A*31:01 (setting [1]), no less than 25500 nM; with HLA-A*33:01 (setting [1]) it was no less than 77700 nM; in the test with HLA-A*68:01 (setting [1]), no less than 23800 nM.
Take IVHSYLKNYK: the Kd with HLA-A*03:01 (setting [1]) worked out at 97.3 nM; with HLA-A*11:01 (setting [1]), 58 nM; with HLA-A*31:01 (setting [1]), 27.5 nM; with HLA-A*33:01 (setting [1]), 9720 nM; with HLA-A*68:01 (setting [1]), 257 nM.
Take IVRTMPNESR: the Kd is 241 nM in the test with HLA-A*03:01 (setting [1]); 16100 nM in the test with HLA-A*11:01 (setting [1]); 4820 nM with HLA-A*31:01 (setting [1]); 10700 nM with HLA-A*33:01 (setting [1]); 401 nM with HLA-A*68:01 (setting [1]).
On to KIKTNDINVR, for which the Kd in the test with HLA-A*03:01 (setting [1]) was 2910 nM; in the test with HLA-A*11:01 (setting [1]), 11300 nM; in the test with HLA-A*31:01 (setting [1]), 103 nM; with HLA-A*33:01 (setting [1]) it was no less than 21000 nM; with HLA-A*68:01 (setting [1]) it was 9080 nM.
The like results for KSIHLTKTDK were, in that order, 107 nM, 19.8 nM, 313 nM, no less than 70000 nM and 416 nM.
The like results for KTSKTTILSK were, in that order, 44.4 nM, 96.4 nM, 311 nM, no less than 70000 nM and 3960 nM.
The like results for LFDFVNFVK were, in that order, 812 nM, 145 nM, 798 nM, 9100 nM and 128 nM.
With LFKNLATSIY, the Kd with HLA-A*03:01 (setting [1]) was no less than 41700 nM; with HLA-A*11:01 (setting [1]), no less than 69800 nM; with HLA-A*31:01 (setting [1]), no less than 37100 nM; with HLA-A*33:01 (setting [1]), no less than 70000 nM; in the test with HLA-A*68:01 (setting [1]), 19900 nM.
In the case of LFQLCTFTK, the dissociation constant Kd with HLA-A*03:01 (setting [2]) stood at 438 nM; with HLA-A*11:01 (setting [2]) it was 191 nM; in the test with HLA-A*31:01 (setting [2]) it was 574 nM; with HLA-A*33:01 (setting [2]) it was 875 nM; in the test with HLA-A*68:01 (setting [2]), 579 nM.
Regarding LIKFISDNK, the Kd with HLA-A*03:01 (setting [1]) turned out to be 151 nM; with HLA-A*11:01 (setting [1]) it was 222 nM; in the test with HLA-A*31:01 (setting [1]) it was 120 nM; with HLA-A*33:01 (setting [1]), 624 nM; with HLA-A*68:01 (setting [1]), 1.1 nM.
As for LLMPILTLTR, the Kd with HLA-A*03:01 (setting [2]) is 571 nM; with HLA-A*11:01 (setting [2]) it was 199 nM; with HLA-A*31:01 (setting [2]) it was 5.53 nM; with HLA-A*33:01 (setting [2]), 262 nM; with HLA-A*68:01 (setting [2]), 89.7 nM.
Regarding LSCTKNTSHH, the Kd was no less than 70000 nM in the test with HLA-A*03:01 (setting [3]); no less than 69700 nM in the test with HLA-A*11:01 (setting [3]); no less than 43100 nM with HLA-A*31:01 (setting [3]); no less than 70000 nM with HLA-A*33:01 (setting [3]); no less than 43700 nM in the test with HLA-A*68:01 (setting [3]).
In the case of LSDENYLLK, the Kd with HLA-A*03:01 (setting [1]) was 591 nM; with HLA-A*11:01 (setting [1]), 1.59 nM; in the test with HLA-A*31:01 (setting [1]) it was 1500 nM; with HLA-A*33:01 (setting [1]) it was no less than 66100 nM; with HLA-A*68:01 (setting [1]) it was 13500 nM.
Take LSYIYSEIK: the Kd turned out to be 26 nM with HLA-A*03:01 (setting [1]); 27.3 nM with HLA-A*11:01 (setting [1]); 8600 nM with HLA-A*31:01 (setting [1]); 1590 nM in the test with HLA-A*33:01 (setting [1]); 252 nM in the test with HLA-A*68:01 (setting [1]).
Consider LVYFSTQQNK, for which the Kd is 0.977 nM with HLA-A*03:01 (setting [1]); 1.56 nM in the test with HLA-A*11:01 (setting [1]); 5230 nM with HLA-A*31:01 (setting [1]); no less than 44600 nM with HLA-A*33:01 (setting [1]); 4.03 nM with HLA-A*68:01 (setting [1]).
The like results for MLEGETKLYK were, in that order, 20.6 nM, 63.4 nM, no less than 50400 nM, no less than 70000 nM and 9180 nM.

As usually defined, the Kd is the constant that tells how readily two partners part at equilibrium.

The record behind these values is the Immune Epitope Database (IEDB).
